These results are taken from publication PMC11374688.

The target in assay [1] is S. pombe Ubc4(C21S/C107S) (S. pombe) (UniProt P46595).
In assay [2] the target is Ub(T): S. pombe Ub residues 1–74 extended with Gly–PSAN (Ub-PSAN), as cyanomethyldithioacetal in the complexes (S. pombe) (UniProt P0CG72).
Chain of UniProt P0CG72 (P0CG72 1-74, one chain of several): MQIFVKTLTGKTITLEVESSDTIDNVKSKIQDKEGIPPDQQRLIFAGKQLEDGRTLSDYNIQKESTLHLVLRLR

Chain of S. pombe Ubc4(C21S/C107S) (S. pombe) (P46595 whole entry C21S/C107S, the tested form may be a part): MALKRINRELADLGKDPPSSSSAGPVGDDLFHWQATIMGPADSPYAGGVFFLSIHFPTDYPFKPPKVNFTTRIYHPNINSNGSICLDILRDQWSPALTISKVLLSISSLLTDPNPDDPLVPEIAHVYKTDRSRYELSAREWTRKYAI

B1: S. pombe Pub2^HECT (295–671) F640A (domain or fragment)
chain: DEYQRKIAYMYDRPEMAVNDAQLQLKVSRATTFEDAYDIISKLSVSDMKKKLLIRFRNEDGLDYGGVSREFFYILSHAIFNPGYSLFEYATDDNYGLQISPLSSVNPDFRSYFRFVGRVMGLAIYHRRYLDVQFVLPFYKRILQKPLCLEDVKDVDEVYYESLKWIKNNDVDESLCLNFSVEENRFGESVTVDLIPNGRNIAVNNQNKMNYLKALTEHKLVTSTEEQFNALKGGLNELIPDSVLQIFNENELDTLLNGKRDIDVQDWKRFTDYRSYTETDDIVIWFWELLSEWSPEKKAKLLQFATGTSRLPLSGFKDMHGSDGPRKFTIEKVGHISQLPKAHTCANRLDIPPYNSKEELEQKLTIAIQETAGFGTE
For the molecule B1, the E2~Ub(T)-to-E3^HECT pulse–chase transthiolation, fold loss of activity against wild type in assay [1] and in assay [2] was 30 fold in each case.
